{"source": "IntAct's records for PubMed 18309292", "parents": {"B1": {"name": "Ras-related protein Rap-1b (Homo sapiens), P61224 (parent)", "chain": "MREYKLVVLGSGGVGKSALTVQFVQGIFVEKYDPTIEDSYRKQVEVDAQQCMLEILDTAGTEQFTAMRDLYMKNGQGFALVYSITAQSTFNDLQDLREQILRVKDTDDVPMILVGNKCDLEDERVVGKEQGQNLARQWNNCAFLESSAKSKINVNEIFYDLVRQINRKTPVPGKARKKSSCQLL"}}, "data": [{"variants_of": "B1", "conditions": "with rpgp1_human RAP1GAP", "values": [{"variant": "F64A", "effect of a mutation on the interaction": "disrupting interaction"}]}, {"variants_of": "B1", "conditions": "with rpgp1_human RAP1GAP", "remark": "another data set of the same source", "values": [{"variant": "Q63E", "effect of a mutation on the interaction": "disrupting interaction"}]}]}
